Source: patent US6905817B1, “Ret-independent signaling pathway for GDNF” (Licestia Ltd., priority 1998, dated 2005)
“Also recorded” adds a separate entry of the source.

Assays:
GFRα2^−/− DRG neurons = experiment: GDNF-evoked [Ca^2+]i changes, confocal microscopy, GFRα2^−/− DRG neurons; type: cell-based, mouse
Method: DRG from embryonic day 18 (E18) mice were treated with trypsin (Worthington), non-neuronal cells removed by preplating, and about 95% pure neurons cultured on poly-ornithine-laminin-coated glass coverslips in Ham's F14 medium (Imperial Laboratories) with serum substitute containing NGF, BDNF and NT-3 (all from PeproTech, 2 ng/ml if each) for at least 1 day before measurement. Neurotrophins were extensively washed out before GDNF application. GDNF was from PeproTech and donated by Cephalon, Inc. Ret-deficient mice (Schuchardt et al., 1994) were identified from heterozygote matings by the absence of kidneys and PCR-based genotyping. GFRα2-deficient mice were obtained from homozygote matings (Rossi et al., 1999).
[Ca^2+]i was measured using a Bio-Rad MRC-1024 confocal microscope equipped with an argon-krypton laser. The cells were loaded with 10 μM Calcium Green-1AM (Molecular Probes), a membrane permeable Ca^2+ dye, by 30 min incubation in serum free cell-culture media at 37 ° C. and 5 % CO2. After loading, the neurons were kept at room temperature in Dulbecco's PBS solution contained 20 mM HEPES (pH=7.4) for at least 20 min prior to the experiments. All compounds were applied to the bath by a peristaltic pump. 6 kD Heparin (Sigma) and Alexa 568 nm fluorescent dye (Molecular Probes) were loaded into the cells using Molecular Probes' pinocytotic influx loading reagent basically according to the manufacturer instructions. […] Cell injection was performed using Eppendorf microinjection system. The average intensity of fluorescence in the predefined ROI (Region Of Interest) was measured on-line using TimeCourse software from BioRad. The calibration of fluorescence traces was performed in vitro using Fmax and Fmin values obtained with the calcium calibration buffer kit (Molecular Probes). Because the calibration solutions may not reflect the intracellular environment, the experimental data are presented as delta [Ca^2+]i calculated using Kd=190 nM for Calcium Green-1.
Transgenic GFRα2 knock-out mice were produced in our laboratory. […]

[1] = system: GFRα1-associated Src kinases; experiment: In vitro kinase assay on anti-GFRα1 immunoprecipitate from Ret^−/− DRG neurons; type: cell-based, mouse; details: GDNF 100 ng/ml, 5 min; Triton X-100 insoluble fraction
Method: DRG neurons (5×10^5), SHEP neuroblastoma cells (10^7), Neuro2A neuroblastoma cells stably transfected with GFRα1 (10^7) or NIH3T3 cells (NIH3T3/pBpGFRα1) stably transfected with GFRα1 (10^7) were incubated in serum-free culture medium without (control) or with GDNF (GDNF-treated) for 0.5-15 min at 37° C. The cells were washed twice with cold PBS/vanadate and lysed in TX-100 lysis buffer (50 mM Tris-HCl, pH 7.5, 150 mM NaCl, 5 mM EDTA, 1% Triton X-100, 1 mM sodium orthovanadate, 1 mM phenylmethylsulfonyl fluoride (PMSF) and protease inhibitors (Boehringer) on ice for 1 hour. The postnuclear lysates were pre-cleared by incubation with 50 μl of 50% Protein G-Sepharose for goat polyclonal antibodies or Protein A-Sepharose CL4B (Pharmacia) for rabbit polyclonal antibodies for 1 hour at +4° C. After removal of the beads, the supernatants were incubated with 0.4-0.5 μg of anti-GFRα1 or anti-Yes polyclonal antibodies (Santa Cruz Biotechnology) overnight at +4° C. followed by incubation with Protein G or A-Sepharose for 2 hours. The immunocomplexes were washed twice in TX-100 lysis buffer without EDTA and twice in kinase buffer (25 mM Hepes, pH 7.4, 5 mM MgCl2, 5 mM MnCl2, 1 mM sodium orthovanadate). […] Quantification of the optical density of the blots was performed using the TINA program.

CREB = CREB Ser-133 phosphorylation assay in Ret^−/− DRG neurons; type: cell-based, mouse; details: after GDNF treatment
Method: (§1) To assess GDNF-dependent MAPK and CREB phosphorylation in all studied cell lines, the semiconfluent cell monolayers were starved for 3 hours in serum-free medium, and then GDNF was applied for the indicated time. For the analysis of MAPK and CREB activation in Ret^−/− animals the DRG neurons were dissected from E18 mice and maintained in NGF-containing medium for 2 hours. After this time the neurons were deprived of NGF by placing them in NGF-free medium in the presence of anti-NGF antibodies. After 2 hr without NGF, the neurons were stimulated with GDNF. In the experiments involving Src-kinase inhibition, a Src-family kinase inhibitor PP2 was added at the indicated concentrations to the cell monolayers 5 min before GDNF application. In some experiments 1 μg/ml of soluble GFRα1 lacking a GPI anchor (GFRα1/Fc chimeric protein; R&D systems) was added 5 min prior to the GDNF application and was kept in the solution during the GDNF treatment, After stimulation, the cells were briefly washed with PBS/sodium vanadate and lysed in the buffer containing TBS, 2 mM EDTA, 1% NP-40, 1% Triton X-100, 1 mM PMSF, 1 mM Na3VO4 and a Complete, protease inhibitors cocktail (Boehringer Mannheim). Total cell protein for each extract was measured by MicroBSA (Pierce) and an equivalent amount of protein was resolved electrophoretically on 10% polyacrylamide gels. […]

p42/p44 MAPK = experiment: MAPK phosphorylation in NIH 3T3 fibroblasts stably transfected with GFRα1; type: cell-based; details: GDNF 100 ng/ml
Method: as §1

B1: Glial cell line—derived neurotrophic factor (protein, UniProt P39905 78-211, looked up)
Glial cell line-derived …: SPDKQMAVLPRRERNRQAAAANPENSRGKGRRGQRGKNRGCVLTAIHLNVTDLGLGYETKEELIFRYCSGSCDAAETTYDKILKNLSRNRRLVSDKVGQACCRPIAFDDDLSFLDDNLVYHILRKHSAKRCGCI
notes: TGF-β family-related neurotrophic protein; from PeproTech and donated by Cephalon, Inc
Q: With B1 as the molecule, how does the “change in [Ca^2+]i” value (GFRα2^−/− DRG neurons; GDNF 100 ng/ml, normal external Ca^2+) read?
A: The value was “evoked both transient and sustained [Ca^2+]i elevation; also recorded: same pattern of fast and slow kinetics of Ca^2+ elevation as the wild type neurons”.

Q: What about the “change in [Ca^2+]i” value (GFRα2^−/− DRG neurons; GDNF after nominal removal of extracellular calcium (about 20 μM)) of the same molecule?
A: The value was “profound rapid and oscillatory (5 out of 9 cells) [Ca^2+]i increase”.

Q: What about the “phosphoprotein in in vitro kinase assay of anti-GFRα1 precipitate” value [1] of the same molecule?
A: The value was “revealed a major phosphoprotein of approximately 60 kD”.

Q: What about the “CREB phosphorylation in Ser-133” value (CREB) of the same molecule?
A: The value was “increased substantially already at 5 min”.

Q: And the “phosphorylation of MAPK” value (p42/p44 MAPK)?
A: The value was “reproducibly increased phosphorylation of MAPK”.
